Data: US20240270846A1 (published 2024)
Changes are numbered by the printed parent chain. Where no end group is shown, it is not given here.

T1: biotin-labeled cynomolgus monkey CD137 fused to human IgG1 Fc fragment (cynomolgus monkey, UniProt Q07011 24-186 (human entry), limits assumed, biotin-labeled)
T1 construct: also called cyno CD137-Fc; not shown: human IgG1 Fc fragment
T1 chain: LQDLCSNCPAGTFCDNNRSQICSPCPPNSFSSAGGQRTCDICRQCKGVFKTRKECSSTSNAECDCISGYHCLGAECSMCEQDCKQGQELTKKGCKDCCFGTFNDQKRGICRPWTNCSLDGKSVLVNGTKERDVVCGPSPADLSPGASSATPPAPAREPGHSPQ

T2: biotin-labeled CD3 epsilon peptide antigen (human, also: biotin-labeled, position not given here)
T2 construct: Peptide of CD3 epsilon; also called CD3 peptide
T2 peptide: QDGNEEMGGITQTPY

T3: biotinylated CD3 epsilon epitope peptide (UniProt P07766 22-48, biotinylated)
T3 chain: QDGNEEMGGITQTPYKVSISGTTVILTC

B1: DADU01_3#002 (antibody, human IgG1, V domains shown)
VH: QVQLVESGGGLVQPGRSLRLSCAASGFTFSNAWMHWVRQAPGKGLEWVAQIKDKQNLYNAYYAESVKGRFTISRDDSKNSIYLQMNSLKTEDTAVYYCHYVHYASASTVLPAFGVDAWGQGTTVTVSS
VL: DIVMTQSPLSLPVTPGEPASISCRSSQSLVHSNRNTYLHWYQQKPGQAPRLLIYKVSNRFSGVPDRFSGSGSGTDFTLKISRVEAEDVGVYYCGQGTQVPYTFGQGTKLEIK
notes: IgG: VH joined to human IgG1 CH1-Fc; also called dBBDu124
B2: DADU01_3#018 (antibody, human IgG1, V domains shown)
VH: B1 VH with K54R, Q55A, L57S, E64P, A104S, S105A, V109L, A112S
VL: B1 VL
notes: IgG: VH joined to human IgG1 CH1-Fc; also called dBBDu123
B3: DXDU01_3#072 (antibody, human IgG1, V domains shown)
VH: B1 VH with K54R, Q55S, N56Q, N59A, E64P, P111G, F113Y
VL: DIVMTQSPLSLPVTPGEPASISCRSSQSLVHSNRNTYLHWYQQKPGQAPRLLIYKVSNRFSGVPDRFSGSGSGTDFTLKISRVEAEDVGVYYCGQGTQVPYTFGQGTKLEIKR
notes: also called dBBDu122
B4: NNS6f56 (CE115HA340 with REATRW inserted between Kabat positions 99 and 100), one-arm antibody (antibody, V domains shown)
VH: QVQLVESGGGLVQPGRSLRLSCAASGFTFSNAWMHWVRQAPGKGLEWVAQIKDKSNNYATYYAESVKGRFTISRDDSKNSIYLQMNSLKTEDTAVYYCRYVHYAAREATRWYYGVDAWGQGTTVTVSS
VL: B3 VL
B5: NNS6f72 (CE115HA340 with EGIWWG inserted between Kabat positions 99 and 100), one-arm antibody (antibody, V domains shown)
VH: B4 VH with R106E, E107G, A108I, T109W, R110W, W111G
VL: B3 VL
B6: NNS6f68 (CE115HA340 with VEWGRW inserted between Kabat positions 99 and 100), one-arm antibody (antibody, V domains shown)
VH: B4 VH with R106V, A108W, T109G
VL: B3 VL
B7: NNS6f58 (CE115HA340 with SWQVSR inserted between Kabat positions 99 and 100), one-arm antibody (antibody, V domains shown)
VH: B4 VH with R106S, E107W, A108Q, T109V, R110S, W111R
VL: B3 VL
B8: NNS6f71 (CE115HA340 with GWVLGS inserted between Kabat positions 99 and 100), one-arm antibody (antibody, V domains shown)
VH: B4 VH with R106G, E107W, A108V, T109L, R110G, W111S
VL: B3 VL
B9: NNS6f67 (CE115HA340 with GLLRAA inserted between Kabat positions 99 and 100), one-arm antibody (antibody, V domains shown)
VH: B4 VH with R106G, E107L, A108L, T109R, R110A, W111A
VL: B3 VL
B10: NNS6f64 (CE115HA340 with LVSLTV inserted between Kabat positions 99 and 100), one-arm antibody (antibody, V domains shown)
VH: B4 VH with R106L, E107V, A108S, T109L, R110T, W111V
VL: B3 VL
B11: NNS6f73 (CE115HA340 with WVVGVR inserted between Kabat positions 99 and 100), one-arm antibody (antibody, V domains shown)
VH: B4 VH with R106W, E107V, A108V, T109G, R110V, W111R
VL: B3 VL
B12: NNS6f17 (CE115HA340 with WGEGVV inserted between Kabat positions 99 and 100), one-arm antibody (antibody)
chain 1: QVQLVESGGGLVQPGRSLRLSCAASGFTFSNAWMHWVRQAPGKGLEWVAQIKDKSNNYATYYAESVKGRFTISRDDSKNSIYLQMNSLKTEDTAVYYCRYVHYAAWGEGVVYYGVDAWGQGTTVTVSSASTKGPSVFPLAPSSKSTSGGTAALGCLVKDYFPEPVTVSWNSGALTSGVHTFPAVLQSSGLYSLSSVVTVPSSSLGTQTYICNVNHKPSNTKVDKKVEPKSCDKTHTCPPCPAPEAAGGPSVFLFPPKPKDTLMISRTPEVTCVVVDVSHEDPEVKFNWYVDGVEVHNAKTKPREEQYASTYRVVSVLTVLHQDWLNGKEYKCKVSNKALPAPIEKTISKAKGQPREPQVYTLPPSRCELTKNQVSLSCAVKGFYPSDIAVEWESNGQPENNYKTTPPVLDSDGSFFLVSKLTVDKSRWQQGNVFSCSVMHEALHNHYTQKSLSLSPDYKDDDDK
chain 2: EPKSSDKTHTCPPCPAPELLGGPSVFLFPPKPKDTLMISRTPEVTCVVVDVSHEDPEVKFNWYVDGVEVHNAKTKPREEQYNSTYRVVSVLTVLHQDWLNGKEYKCKVSNKALPAPIEKTISKAKGQPREPQVCTLPPSRDELTKNQVSLWCLVKGFYPSDIAVEWESNGQPENNYKTTPPVLDSDGSFFLYSKLTVDKSRWQQGNVFSCSVMHEALHNRYTQKSLSLSP
chain 3: DIVMTQSPLSLPVTPGEPASISCRSSQSLVHSNRNTYLHWYQQKPGQAPRLLIYKVSNRFSGVPDRFSGSGSGTDFTLKISRVEAEDVGVYYCGQGTQVPYTFGQGTKLEIKRTVAAPSVFIFPPSDEQLKSGTASVVCLLNNFYPREAKVQWKVDNALQSGNSQESVTEQDSKDSTYSLSSTLTLSKADYEKHKVYACEVTHQGLSSPVTKSFNRGEC
B13: NNS6f51 (CE115HA340 with GFLVLW inserted between Kabat positions 99 and 100), one-arm antibody (antibody)
chain 1: B12 chain 1 with W106G, G107F, E108L, G109V, V110L, V111W
chain 2: B12 chain 2
chain 3: B12 chain 3
B14: NNS6f29 (CE115HA340 with IYYPTN inserted between Kabat positions 99 and 100), one-arm antibody (antibody)
chain 1: B12 chain 1 with W106I, G107Y, E108Y, G109P, V110T, V111N
chain 2: B12 chain 2
chain 3: B12 chain 3
B15: NNS6f27 (CE115HA340 with VWGSVW inserted between Kabat positions 99 and 100), one-arm antibody (antibody)
chain 1: B12 chain 1 with W106V, G107W, E108G, G109S, V111W
chain 2: B12 chain 2
chain 3: B12 chain 3
B16: NNS6f55 (CE115HA340 with AGRWLA inserted between Kabat positions 99 and 100), one-arm antibody (antibody)
chain 1: B12 chain 1 with W106A, E108R, G109W, V110L, V111A
chain 2: B12 chain 2
chain 3: B12 chain 3
B17: NNS6f50 (CE115HA340 with LTGGLG inserted between Kabat positions 99 and 100), one-arm antibody (antibody)
chain 1: B12 chain 1 with W106L, G107T, E108G, V110L, V111G
chain 2: B12 chain 2
chain 3: B12 chain 3
B18: NNS6f62 (CE115HA340 with NGGTRH inserted between Kabat positions 99 and 100), one-arm antibody (antibody)
chain 1: B12 chain 1 with W106N, E108G, G109T, V110R, V111H
chain 2: B12 chain 2
chain 3: B12 chain 3
B19: NNS6f52 (CE115HA340 with YMLGLG inserted between Kabat positions 99 and 100), one-arm antibody (antibody)
chain 1: B12 chain 1 with W106Y, G107M, E108L, V110L, V111G
chain 2: B12 chain 2
chain 3: B12 chain 3
B20: NNS6f63 (CE115HA340 with GGGGWV inserted between Kabat positions 99 and 100), one-arm antibody (antibody)
chain 1: B12 chain 1 with W106G, E108G, V110W
chain 2: B12 chain 2
chain 3: B12 chain 3
B21: NNS6f47 (CE115HA340 with HFMWWG inserted between Kabat positions 99 and 100), one-arm antibody (antibody)
chain 1: B12 chain 1 with W106H, G107F, E108M, G109W, V110W, V111G
chain 2: B12 chain 2
chain 3: B12 chain 3
B22: NNS6f59 (CE115HA340 with LLVQEG inserted between Kabat positions 99 and 100), one-arm antibody (antibody)
chain 1: B12 chain 1 with W106L, G107L, E108V, G109Q, V110E, V111G
chain 2: B12 chain 2
chain 3: B12 chain 3
B23: NNS6f54 (CE115HA340 with FEWVGW inserted between Kabat positions 99 and 100), one-arm antibody (antibody)
chain 1: B12 chain 1 with W106F, G107E, E108W, G109V, V110G, V111W
chain 2: B12 chain 2
chain 3: B12 chain 3

Molecular target: T1, biotin-labeled cynomolgus monkey CD137 …
Test: bead ELISA; RLU on cyno CD137-Fc divided by RLU on human Fc
Experimental: (§1) First, 20 micro g of Streptavidin-coated magnetic beads MyOne-T1 beads was washed three-times with blocking buffer including 0.5× block Ace, 0.02% Tween and 0.05% ProClin 300 and then blocked with this blocking buffer at room temperature for 60 minutes or more. […] After that each well was washed with TBST. […] The plate was incubated for one hour. […] 2 minutes later the fluorescence of each well was detected.

S/N ratio cyno CD137-Fc/Fc	Binder
5.6	B1
3.27	B2

Molecular target: T1, biotin-labeled cynomolgus monkey CD137 …
Test: bead ELISA (chemiluminescence), purified IgG on biotin labeled cyno CD137-Fc on streptavidin beads
Experimental: as §1

RLU [RLU]	Binder
10800	B1
6200	B2

Molecular target: T2, biotin-labeled CD3 epsilon peptide …
Test: bead ELISA, biotin-CD3 epsilon peptide on streptavidin beads, 100 ng IgG

RLU, CD3 peptide [RLU]	S/N ratio CD3 peptide/non coating	Binder
177000	148	B3

Molecular target: T4, biotin-labeled human CD137 fused to human IgG1 Fc fragment (human, biotin-labeled)
T4 construct: also called human CD137-Fc; biotin-human CD137-Fc
T4 sequence (chain, as listed by the source limits assumed): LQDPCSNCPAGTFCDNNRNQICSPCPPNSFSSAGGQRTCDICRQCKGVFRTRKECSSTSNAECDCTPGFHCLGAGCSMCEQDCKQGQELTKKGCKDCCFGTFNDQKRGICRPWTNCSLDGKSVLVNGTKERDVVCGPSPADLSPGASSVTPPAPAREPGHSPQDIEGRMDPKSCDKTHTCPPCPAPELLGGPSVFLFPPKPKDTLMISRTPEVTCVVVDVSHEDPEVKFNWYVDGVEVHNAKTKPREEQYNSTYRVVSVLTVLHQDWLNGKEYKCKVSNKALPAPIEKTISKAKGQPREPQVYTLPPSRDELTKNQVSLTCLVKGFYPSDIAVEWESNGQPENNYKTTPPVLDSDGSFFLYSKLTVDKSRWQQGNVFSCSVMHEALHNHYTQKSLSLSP
Test: bead ELISA (chemiluminescence), purified IgG on biotin labeled human CD137-Fc on streptavidin beads
Experimental: as §1

RLU [RLU]	Binder
39100	B1
32800	B2

Molecular target: T4, biotin-labeled human CD137 fused to …
Test: bead ELISA; RLU on human CD137-Fc divided by RLU on human Fc
Experimental: as §1

S/N ratio human CD137-Fc/Fc	Binder
20.3	B1
17.3	B2

Molecular target: T3, biotinylated CD3 epsilon epitope peptide
Test: SPR (Biacore); biotinylated CD3 epsilon epitope peptide on chip via streptavidin, antibody as analyte

Kd [nM]	Binder
21	B4
150	B5
45	B6
44	B7
51	B8
36	B9
78	B10
26	B11
74	B12
31	B13
90	B14
38	B15
31	B16
71	B17
61	B18
52	B19
69	B20
31	B21
200	B22
29	B23
